± gives the uncertainty stated by the source.
Test: abundance fitness (aPCA) (normalised: wild type 0, dead -1); higher = more abundant; growth selection in yeast, the domain comes from the species named
Conditions: Homo sapiens
For “DnaJ homolog subfamily B member 1 Y6R, P25685”, the abundance fitness was -0.986 ± 0.1. With “DnaJ homolog subfamily B member 1 Y6S, P25685” the abundance fitness was -0.817 ± 0.072. “DnaJ homolog subfamily B member 1 Y6T, P25685” showed an abundance fitness of -0.557 ± 0.11. In the case of “DnaJ homolog subfamily B member 1 Y6V, P25685”, the abundance fitness is reported as -1.18 ± 0.086. Substance “DnaJ homolog subfamily B member 1 Y6W, P25685” has an abundance fitness of -0.204 ± 0.13. In the case of “DnaJ homolog subfamily B member 1 Y24A, P25685”, the abundance fitness is reported as -0.686 ± 0.24. “DnaJ homolog subfamily B member 1 Y24C, P25685” showed an abundance fitness of -0.504 ± 0.086. “DnaJ homolog subfamily B member 1 Y24D, P25685” gave an abundance fitness of -0.654 ± 0.16. In the case of “DnaJ homolog subfamily B member 1 Y24E, P25685”, the abundance fitness is reported as -0.411 ± 0.1. Substance “DnaJ homolog subfamily B member 1 Y24F, P25685” has an abundance fitness of -0.075 ± 0.2. Substance “DnaJ homolog subfamily B member 1 Y24G, P25685” has an abundance fitness of -0.499 ± 0.1. “DnaJ homolog subfamily B member 1 Y24H, P25685” gave an abundance fitness of -0.38 ± 0.2. Substance “DnaJ homolog subfamily B member 1 Y24I, P25685” has an abundance fitness of -0.788 ± 0.2. Work on “DnaJ homolog subfamily B member 1 Y24K, P25685” yielded an abundance fitness of -0.358 ± 0.099. Substance “DnaJ homolog subfamily B member 1 Y24L, P25685” has an abundance fitness of -0.492 ± 0.061. With “DnaJ homolog subfamily B member 1 Y24M, P25685” the abundance fitness was -0.223 ± 0.074. Work on “DnaJ homolog subfamily B member 1 Y24N, P25685” yielded an abundance fitness of -0.408 ± 0.11. “DnaJ homolog subfamily B member 1 Y24Q, P25685” showed an abundance fitness of -0.547 ± 0.091. With “DnaJ homolog subfamily B member 1 Y24R, P25685” the abundance fitness was -0.404 ± 0.055. “DnaJ homolog subfamily B member 1 Y24S, P25685” showed an abundance fitness of -0.464 ± 0.055. “DnaJ homolog subfamily B member 1 Y24T, P25685” showed an abundance fitness of -0.427 ± 0.08. With “DnaJ homolog subfamily B member 1 Y24V, P25685” the abundance fitness was -0.547 ± 0.09. “DnaJ homolog subfamily B member 1 Y24W, P25685” gave an abundance fitness of -0.159 ± 0.079. Work on “DnaJ homolog subfamily B member 1 Y31A, P25685” yielded an abundance fitness of -0.175 ± 0.12. For “DnaJ homolog subfamily B member 1 Y31D, P25685”, the abundance fitness was -0.27 ± 0.16. Substance “DnaJ homolog subfamily B member 1 Y31E, P25685” has an abundance fitness of -0.294 ± 0.089. For “DnaJ homolog subfamily B member 1 Y31F, P25685”, the abundance fitness was -0.347 ± 0.17. “DnaJ homolog subfamily B member 1 Y31G, P25685” gave an abundance fitness of -0.302 ± 0.1. For “DnaJ homolog subfamily B member 1 Y31H, P25685”, the abundance fitness was -0.494 ± 0.21. “DnaJ homolog subfamily B member 1 Y31I, P25685” showed an abundance fitness of -0.259 ± 0.052. Work on “DnaJ homolog subfamily B member 1 Y31L, P25685” yielded an abundance fitness of -0.16 ± 0.063. “DnaJ homolog subfamily B member 1 Y31M, P25685” showed an abundance fitness of -0.164 ± 0.092. In the case of “DnaJ homolog subfamily B member 1 Y31N, P25685”, the abundance fitness is reported as -0.287 ± 0.14. With “DnaJ homolog subfamily B member 1 Y31P, P25685” the abundance fitness was -0.537 ± 0.095. In the case of “DnaJ homolog subfamily B member 1 Y31Q, P25685”, the abundance fitness is reported as -0.181 ± 0.12. For “DnaJ homolog subfamily B member 1 Y31R, P25685”, the abundance fitness was -0.401 ± 0.086. For “DnaJ homolog subfamily B member 1 Y31T, P25685”, the abundance fitness was -0.369 ± 0.12. “DnaJ homolog subfamily B member 1 Y31V, P25685” showed an abundance fitness of -0.234 ± 0.12. “DnaJ homolog subfamily B member 1 Y31W, P25685” gave an abundance fitness of -0.188 ± 0.1. In the case of “DnaJ homolog subfamily B member 1 Y52A, P25685”, the abundance fitness is reported as -0.265 ± 0.083. With “DnaJ homolog subfamily B member 1 Y52C, P25685” the abundance fitness was -0.404 ± 0.21. “DnaJ homolog subfamily B member 1 Y52D, P25685” gave an abundance fitness of -0.3 ± 0.17. For “DnaJ homolog subfamily B member 1 Y52E, P25685”, the abundance fitness was -0.441 ± 0.069. Substance “DnaJ homolog subfamily B member 1 Y52F, P25685” has an abundance fitness of 0.076 ± 0.091. “DnaJ homolog subfamily B member 1 Y52G, P25685” showed an abundance fitness of -0.194 ± 0.077. Substance “DnaJ homolog subfamily B member 1 Y52H, P25685” has an abundance fitness of -0.03 ± 0.3. “DnaJ homolog subfamily B member 1 Y52K, P25685” showed an abundance fitness of -0.337 ± 0.13. “DnaJ homolog subfamily B member 1 Y52L, P25685” showed an abundance fitness of -0.39 ± 0.071. For “DnaJ homolog subfamily B member 1 Y52M, P25685”, the abundance fitness was -0.049 ± 0.091. “DnaJ homolog subfamily B member 1 Y52N, P25685” showed an abundance fitness of -0.195 ± 0.14. “DnaJ homolog subfamily B member 1 Y52P, P25685” gave an abundance fitness of -0.466 ± 0.1. Substance “DnaJ homolog subfamily B member 1 Y52Q, P25685” has an abundance fitness of -0.306 ± 0.11. “DnaJ homolog subfamily B member 1 Y52R, P25685” showed an abundance fitness of -0.305 ± 0.071. For “DnaJ homolog subfamily B member 1 Y52S, P25685”, the abundance fitness was -0.332 ± 0.058. For “DnaJ homolog subfamily B member 1 Y52T, P25685”, the abundance fitness was -0.333 ± 0.089. “DnaJ homolog subfamily B member 1 Y52V, P25685” showed an abundance fitness of -0.249 ± 0.089. Work on “DnaJ homolog subfamily B member 1 Y52W, P25685” yielded an abundance fitness of 0.005 ± 0.074.
